# Laboratory results reported in IntAct's records for PubMed 9045636.
# B1: Proto-oncogene tyrosine-protein kinase LCK (Mus musculus), P06240 (parent)
# chain: MGCVCSSNPEDDWMENIDVCENCHYPIVPLDSKISLPIRNGSEVRDPLVTYEGSLPPASPLQDNLVIALHSYEPSHDGDLGFEKGEQLRILEQSGEWWKAQSLTTGQEGFIPFNFVAKANSLEPEPWFFKNLSRKDAERQLLAPGNTHGSFLIRESESTAGSFSLSVRDFDQNQGEVVKHYKIRNLDNGGFYISPRITFPGLHDLVRHYTNASDGLCTKLSRPCQTQKPQKPWWEDEWEVPRETLKLVERLGAGQFGEVWMGYYNGHTKVAVKSLKQGSMSPDAFLAEANLMKQLQHPRLVRLYAVVTQEPIYIITEYMENGSLVDFLKTPSGIKLNVNKLLDMAAQIAEGMAFIEEQNYIHRDLRAANILVSDTLSCKIADFGLARLIEDNEYTAREGAKFPIKWTAPEAINYGTFTIKSDVWSFGILLTEIVTHGRIPYPGMTNPEVIQNLERGYRMVRPDNCPEELYHLMMLCWKERPEDRPTFDYLRSVLDDFFTATEGQYQPQP
# Variants of: B1
# Details: with khdr1_human KHDRBS1, Q07666
# khdr1_human KHDRBS1, Q07666, sequence (Q07666 whole entry): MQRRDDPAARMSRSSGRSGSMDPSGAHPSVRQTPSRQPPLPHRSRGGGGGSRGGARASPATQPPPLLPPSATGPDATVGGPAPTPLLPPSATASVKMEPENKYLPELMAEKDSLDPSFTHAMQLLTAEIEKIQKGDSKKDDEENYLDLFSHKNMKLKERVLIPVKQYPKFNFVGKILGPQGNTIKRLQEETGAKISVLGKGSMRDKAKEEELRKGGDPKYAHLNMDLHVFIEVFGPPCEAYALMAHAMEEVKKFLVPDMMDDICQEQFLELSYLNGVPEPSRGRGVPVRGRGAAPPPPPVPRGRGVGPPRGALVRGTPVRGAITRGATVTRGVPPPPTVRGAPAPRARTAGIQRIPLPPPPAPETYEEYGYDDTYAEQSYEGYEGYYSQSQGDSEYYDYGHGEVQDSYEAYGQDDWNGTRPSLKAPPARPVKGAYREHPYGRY
row,effect of a mutation on the interaction,Variant
1,decreasing interaction,P112K

# Variants of: B1
# Details: with khdr1_human KHDRBS1, Q07666
# Remark: another data set of the same source
row,effect of a mutation on the interaction,Variant
1,decreasing interaction,R154K
